B1: library; numbered along this chain (parent)
chain: MAAAAAAAAEQQSSNGPVKKSMREKAVERRSVNKEHNSNFKAGYIPIDEDRLHKTGLRGRKGNLAICVIILLFILAVINLIITLVIWAVIRIGPNGCDSMEFHESGLLRFKQVSDMGVIHPLYKSTVGGRRNENLVITGNNQPIVFQQGTTKLSVENNKTSITSDIGMQFFDPRTQNILFSTDYETHEFHLPSGVKSLNVQKASTERITSNATSDLNIKVDGRAIVRGNEGVFIMGKTIEFHMGGNMELKAENSIILNGSVMVSTTRLPSSSSGDQLGSGDWVRYKLCMCADGTLFKVQVTSQNMGCQISDNPCGNTH

Variants of: B1
Experiment: SGCB cell-surface expression functional score (HA stain, bin4 vs bin1, normalised to synonymous) (log10 ratio); higher = more cell-surface SGCB (functional)
Method in brief: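 The functional score is a log ratio of variant frequency in the highest versus the lowest intensity bin, expressed as a median over codons and duplicate transductions. Codon-saturation libraries of HA-tagged, YFP-fused human beta-sarcoglycan were transduced by lentivirus at MOI <0.1 into HEK293 cells stably expressing alpha-, gamma- and delta-sarcoglycan, and the cells were stained on ice with Alexa Fluor 647 anti-HA, fixed and sorted into four 5% intensity bins before amplicon sequencing. Synonymous variants were scaled to mean 0, SD 0.5 within each section.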

SGCB cell-surface expression functional score (log10) of substitutions, site by site:
N316: F 0.15, P 0.29, C 0.11, Y 0.39, H 0.47, A -0.18, V -0.19, G -0.83, Q 0.13, R 0.15, S -0.05, T 0.37, D 0.19, I -0.06, E -0.68, W -0.12, K 0.03, M 0.48, L -0.05
D311: T -0.93, A 0.29, W 0.22, P -0.48, F 0.43, G 0.11, K -0.22, Y -0.64, C 0.1, E -0.14, I 0.18, R 0.34, H 0.31, N 0.01, V 0.04, M 0.69, L 0.05, Q -0.87, S -0.06
S310: M -0.01, Y 0.49, V 0.14, E -0.2, C -0.2, I 0.04, Q 0.27, P -0.54, N 0.59, W 0.98, K 0.24, H -0.5, R -0.02, T -0.25, A -0.09, G 0.34, L 0.07, D -0.01, F 0.06
G315: L -0.02, P -0.04, V -0.01, W 0.43, R 0.03, C -0.05, A -0.11, I -0.24, K -0.14, M 0.54, F -0.43, Q 0.1, Y 0.26, T 0.15, D -0.41, N 0.02, S -0.28, E 0.04, H 0.04
C314: N -0.61, P -0.09, S -0.27, E -0.03, R -1.01, Q 0.15, H -0.18, F -0.43, A 0.07, G -0.29, K 0.06, M -1.88, Y -0.32, W 0.19, V 0, I -0.11, T -0.78, D 0.34, L -0.5
I309: C -1.19, S 0.1, N 0.02, M -0.08, G -0.41, T 0.29, V -0.63, R 0, P -0.24, A 0.27, Q -0.01, D -1.61, Y -0.22, K -0.24, L 0.13, H -0.32, F -0.22, E -0.14, W 0.15
P313: F -0.03, A 0.41, Y -0.27, S -0.17, Q -0.3, W -0.38, D -0.42, M -0.49, T 0.06, E 0.11, I -0.92, N 0.01, R -0.02, L -0.14, V 0.23, H -0.07, G -0.17, C 0.15, K -0.22
N312: R 0.27, D 0.1, F 0.03, I 0.12, C -0.41, E 0.35, Y 0.54, Q -0.46, A -0.03, G -0.13, W 0.57, H -0.15, V 0.13, L 0.12, K 0.25, M 0.01, T 0.06, P -0.09, S 0.08
T317: S 0.15, M -0.28, P -0.04, L -0.33, A -0.21, D -1.71, K 0.5, Q 0.03, H -0.39, E -0.34, Y 0.51, F 0.01, R -0.1, W 0.32, C 0.17, I 0.05, N 0.08, G 0.44, V -0.26

Reference: the supplement of paper PMC10266784
